B1: Protein argonaute-3 (Drosophila melanogaster (Fruit fly)), Q7PLK0 (parent)
chain: MSGRGNLLSLFNKNAGNMGKSISSKDHEIDSGLDFNNSESSGERLLSSHNIETDLITTLQHVNISVGRGRARLIDTLKTDDHTSNQFITSESKENITKKTKGPESEAIASENGLFFPDLIYGSKGSSVNIYCNYLKLTTDESKGVFNYEVRFFPPIDSVHLRIKYLNDHKDKLGGTKTFDGNTLYLPILLPNKMTVFISKAEDVELQIRILYKKKEEMRNCTQLYNILFDRVMKVLNYVKFDRKQFDPSRPKIIPLAKLEVWPGYVTAVDEYKGGLMLCCDVSHRILCQKTVLEMLVDLYQQNVEHYQESARKMLVGNIVLTRYNNRTYKINDICFDQNPTCQFEIKTGCTSYVEYYKQYHNINIKDVNQPLIYSIKKSRGIPAERENLQFCLIPELCYLTGLRDEVRSDNKLMREIATFTRVSPNQRQMALNKFYENVSNTPAAQEILNSWGLSLTNNSNKISGRQMDIEQIYFSKISVSAGRSAEFSKHAVTNEMLKVVHLSKWIIIHLRNYRQAATSLLDNMKQACESLGMNISNPTMISLDHDRIDAYIQALRRNITMNTQMVVCICHNRRDDRYAAIKKICCSEIPIPSQVINAKTLQNDLKIRSVVQKIVLQMNCKLGGSLWTVKIPFKNVMICGIDSYHDPSNRGNSVAAFVASINSSYSQWYSKAVVQTKREEIVNGLSASFEIALKMYRKRNGKLPTNIIIYRDGIGDGQLYTCLNYEIPQFEMVCGNRIKISYIVVQKRINTRIFSGSGIHLENPLPGTVVDQHITKSNMYDFFLVSQLVRQGTVTPTHYVVLRDDCNYGPDIIQKLSYKLCFLYYNWAGTVRIPACCMYAHKLAYLIGQSIQRDVAEALSEKLFYL
partner: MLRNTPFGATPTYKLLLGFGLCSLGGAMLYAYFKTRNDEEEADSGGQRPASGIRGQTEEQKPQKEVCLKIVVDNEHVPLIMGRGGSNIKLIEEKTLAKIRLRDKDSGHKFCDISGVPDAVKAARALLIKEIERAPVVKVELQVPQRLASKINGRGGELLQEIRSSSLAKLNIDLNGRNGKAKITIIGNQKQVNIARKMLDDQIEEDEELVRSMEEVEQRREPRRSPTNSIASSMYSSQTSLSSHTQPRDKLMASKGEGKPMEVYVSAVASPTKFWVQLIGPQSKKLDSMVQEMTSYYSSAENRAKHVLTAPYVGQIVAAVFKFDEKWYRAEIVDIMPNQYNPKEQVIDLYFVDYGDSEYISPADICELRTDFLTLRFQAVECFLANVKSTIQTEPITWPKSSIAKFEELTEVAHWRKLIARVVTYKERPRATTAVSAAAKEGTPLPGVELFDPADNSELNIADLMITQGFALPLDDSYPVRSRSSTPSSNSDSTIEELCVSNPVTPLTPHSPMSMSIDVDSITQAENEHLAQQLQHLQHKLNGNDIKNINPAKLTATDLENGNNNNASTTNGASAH
B2: Protein piwi (Drosophila melanogaster (Fruit fly)), Q9VKM1 (parent)
chain: MADDQGRGRRRPLNEDDSSTSRGSGDGPRVKVFRGSSSGDPRADPRIEASRERRALEEAPRREGGPTERKPWGDQYDYLNTRPAELVSKKGTDGVPVMLQTNFFRLKTKPEWRIVHYHVEFEPSIENPRVRMGVLSNHANLLGSGYLFDGLQLFTTRKFEQEITVLSGKSKLDIEYKISIKFVGFISCAEPRFLQVLNLILRRSMKGLNLELVGRNLFDPRAKIEIREFKMELWPGYETSIRQHEKDILLGTEITHKVMRTETIYDIMRRCSHNPARHQDEVRVNVLDLIVLTDYNNRTYRINDVDFGQTPKSTFSCKGRDISFVEYYLTKYNIRIRDHNQPLLISKNRDKALKTNASELVVLIPELCRVTGLNAEMRSNFQLMRAMSSYTRMNPKQRTDRLRAFNHRLQNTPESVKVLRDWNMELDKNVTEVQGRIIGQQNIVFHNGKVPAGENADWQRHFRDQRMLTTPSDGLDRWAVIAPQRNSHELRTLLDSLYRAASGMGLRIRSPQEFIIYDDRTGTYVRAMDDCVRSDPKLILCLVPNDNAERYSSIKKRGYVDRAVPTQVVTLKTTKNRSLMSIATKIAIQLNCKLGYTPWMIELPLSGLMTIGFDIAKSTRDRKRAYGALIASMDLQQNSTYFSTVTECSAFDVLANTLWPMIAKALRQYQHEHRKLPSRIVFYRDGVSSGSLKQLFEFEVKDIIEKLKTEYARVQLSPPQLAYIVVTRSMNTRFFLNGQNPPPGTIVDDVITLPERYDFYLVSQQVRQGTVSPTSYNVLYSSMGLSPEKMQKLTYKMCHLYYNWSGTTRVPAVCQYAKKLATLVGTNLHSIPQNALEKKFYYL
partner: B1 partner

Variants of: B1
Conditions: with tdrkh_drome papi

Row | Variant | effect of a mutation on the interaction
1 | R68K;R70K;R72K | disrupting interaction strength

Variants of: B2
Conditions: with tdrkh_drome papi

Row | Variant | effect of a mutation on the interaction
2 | R7K;R9K | disrupting interaction strength
